Assay results taken from publication doi:10.1101/2024.05.28.596271.
pKd: −log10 of the molar value.

How the values were obtained:
[1] = target: FAM-labeled integrin β3 peptide (human); test: fluorescence polarisation
[2] = target: FITC-labeled integrin β2 peptide representing both the JM and the NPxY/F regions (human); test: fluorescence polarisation

Substance | fold increase in affinity over wild-type THD [1] [fold] | pKd [2] | pKd [1]
THD(D397K) (from UniProt P26039 1-405) (domain or fragment) | 2 | – | –
THD(D397R) (from UniProt P26039 1-405) (domain or fragment) | 2 | < 4.00 | –
talin head protein THD405d (residues 1-405, lacking F1-loop) (from UniProt P26039 1-405) (domain or fragment) | – | 4.50 | 5.36
